Results taken from patent US20260085338.

Biological target: T7 RNA polymerase, P00573
Sequence (P00573 whole entry): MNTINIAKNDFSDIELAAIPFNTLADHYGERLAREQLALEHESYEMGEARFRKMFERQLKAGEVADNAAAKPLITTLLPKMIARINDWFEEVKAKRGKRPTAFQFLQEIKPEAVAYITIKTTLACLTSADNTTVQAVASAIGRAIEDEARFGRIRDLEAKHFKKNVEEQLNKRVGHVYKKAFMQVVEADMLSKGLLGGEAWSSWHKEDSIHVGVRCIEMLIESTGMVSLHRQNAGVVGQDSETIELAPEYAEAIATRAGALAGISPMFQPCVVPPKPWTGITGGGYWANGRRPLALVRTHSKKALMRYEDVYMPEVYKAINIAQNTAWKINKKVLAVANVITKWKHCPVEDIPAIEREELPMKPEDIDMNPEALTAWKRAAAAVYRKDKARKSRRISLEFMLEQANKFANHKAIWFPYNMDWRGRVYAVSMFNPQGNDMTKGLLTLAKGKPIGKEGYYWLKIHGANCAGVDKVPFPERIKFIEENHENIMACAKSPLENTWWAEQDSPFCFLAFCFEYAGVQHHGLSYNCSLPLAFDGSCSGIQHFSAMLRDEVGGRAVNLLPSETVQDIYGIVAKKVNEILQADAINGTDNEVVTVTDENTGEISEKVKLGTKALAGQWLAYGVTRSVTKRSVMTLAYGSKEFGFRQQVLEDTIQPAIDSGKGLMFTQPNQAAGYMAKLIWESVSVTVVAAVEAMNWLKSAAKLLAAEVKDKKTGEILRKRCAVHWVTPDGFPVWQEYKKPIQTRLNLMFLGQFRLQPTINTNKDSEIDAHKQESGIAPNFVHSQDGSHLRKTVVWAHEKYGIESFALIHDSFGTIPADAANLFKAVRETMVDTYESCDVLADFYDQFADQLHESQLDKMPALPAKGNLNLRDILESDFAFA

B1: T7 lysozyme (protein)
chain: MARVQFKQRESTDAIFVHCSATKPSQNVGVREIRQWHKEQGWLDVGYHFIIKRDGTVEAGRDEMAVGSHAKGYNHNSIGVCLVGGIDDKGKFDANFTPAQMQSLRSLLVTLLAKYEGAVLRAHHEVAPKACPSFDLKRWWEKNELVTSDRG
Which “reduction of msfGFP output upon lysozyme induction (P. putida, 4 mM Rha)” value does the source give for B1 here?
Its value is “T7 (-79%)”.
